The source of these data is patent US20110293648A1 (LUDWIG INSTITUTE FOR CANCER RESEARCH, published 2011).

For one experiment, the target named is MHC class I. The experiment can be described thus: flow cytometry, staining of an EBV cell line (internal control). (Flow cytometry measures light scatter and fluorescence of single cells or particles in a stream.)
A further experiment deals with HLA-DR. The experiment is described as above.
The target in experiment [1] is T1, HLA-DRB1*0301 (human).
T1 construct: whole, on cells; also called DR3; HLA-DR3
The experiment can be described thus: not specified ('The methods described above').

In another experiment the target is T2, HLA-DRB1*0701 (human).
T2 construct: whole, on cells; On LCL 40 or homozygous EBV line BH in the T cell assays
The experiment is described as follows: not specified ('The methods described above').

In a further experiment the target is T3, HLA-DRB1*1501 (human).
T3 construct: whole, on cells; On Me 290 cells in the ELISPOT assay
The experiment is described as follows: not specified ('The methods described above').

Another experiment addresses T4, HLA-DRB1*0101 (human).
T4 construct: Only the beta allele is printed
The experiment can be described thus: not specified ('The methods described above').

The target of the next experiment is T5, HLA-DRB1*1101 (human).
T5 construct: whole, on cells; On antigen presenting cells in the ELISPOT assays
The experiment is described as follows: not specified ('The methods described above').

The next experiment addresses T6, HLA-DRB5*0101 (human).
T6 construct: whole, on cells; On Me 290 cells in the ELISPOT assay
The experiment can be described thus: not specified ('The methods described above').

Experiment [2] addresses T1, HLA-DRB1*0301. The experiment can be described thus: cell-based or functional assay.

In the case of anti-pan MHC-I antibody clone W6/32, in the experiment with MHC class I, the MFI turned out to be 271 MFI.

Consider anti-HLA-DR antibody clone L243, for which the MFI with HLA-DR stood at 787 MFI.

Turning to FGRLQGISPKIMPKK [SSX-2 peptide p101-115], the binding result with HLA-DRB1*0301 [1] and with HLA-DRB1*0701 was “binds” in each case.

B1: SSX-2 peptide p98-112 (peptide)
peptide: QMTFGRLQGISPKIM
notes: also called p98-111 (as printed once); SSX-2 98-112
In the case of B1, the binding result with HLA-DRB1*1501, in the experiment with HLA-DRB1*0101, with HLA-DRB1*1101 and with HLA-DRB5*0101 was “binds” each time.

For the molecule WEKMKASEKIFIVYM [SSX-5 37-51 peptide], the “cross-recognition by SSX-2 specific, DR3 restricted CD4+ T cells, peptide titration, IFN-gamma ELISA; efficiency against SSX-2 37-51” value in the experiment with HLA-DRB1*0301 [2] is around 3 fold less efficiently.

As to WEKMKSSEKIVYVYM [SSX-4 37-51 peptide], the “cross-recognition by SSX-2 specific, DR3 restricted CD4+ T cells, peptide titration, IFN-gamma ELISA; efficiency against SSX-2 37-51” value in the experiment with HLA-DRB1*0301 [2] was around 10 fold less efficiently.
